Data published in the supplement of paper PMC10567573.

B1: NEUROD6 (parent)
chain: YHSPELTTPPGHGTLDNSKSMKPY
B2: TRIM35 (parent)
chain: WEVQVSPTCPVCKDRASPADLRTN

Variants of: B1
Assay: protein stability index of a GFP-peptide fusion (GPS, HEK-293T) (PSI 1-6); higher = more stable
Conditions: c terminus: a fixed tail appended
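Further: lentivirally expressed fusions sorted by FACS into six bins by GFP to DsRed ratio, PSI derived from sequencing read proportions per bin multiplied by bin number.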

Protein stability index of substitutions, site by site:
D16: F 1.75, Q 2.59, V 2.18, W 2.19, R 1.63
K22: A 2.56, V 2.06, C 1.81
G11: Y 2.07, I 2.21, W 1.98, K 2.5, V 1.96, A 2.34
N17: Q 2.52, L 1.72, I 2.23, G 2.68, T 2.15
K19: P 2.22, E 2.59, Y 1.9, G 2.21, S 2.17, D 2.85, A 2.3
P23: G 2.23, W 2.67, M 1.98, I 1.69, S 1.9, E 2.41, N 2.36, T 1.77
L15: S 2.35, I 2.17, F 1.77, K 2.2, R 2, A 2.17
E5: G 2.14, N 2.43, C 1.75, M 1.98, T 2.28, K 2.14, V 2.14, Y 2.32, R 2.66, I 2.25
H2: Q 3.15, M 4.18, K 4.69
T8: Y 2.11, M 1.92, D 3.14, H 2.15, A 2.17
G13: S 2.19, I 2.06, E 2.67, H 2.48, T 2.41
T14: M 2.33, V 1.79, E 2.51
S18: G 2.39, W 1.8, A 2.09, R 2, E 2.16
P9: S 2.22, L 2.64, H 3.09, W 1.94, T 2.32, K 2.45
L6: T 3.28, I 2.63, G 3.05, A 2.58, H 3.28
Y1: A 5.09, H 4.62, V 4.69, I 4.77
S3: W 2.52, M 1.94, Q 3.12, T 2.77, Y 2.02
S20: Q 2.48, D 2.28, P 2.3, E 2.54
H12: P 2.25, A 2.16, Q 2.21
Y24: G 2.67, D 2.44, V 2.41, R 2.48
M21: F 2.18, G 2.71, W 2.14, C 2.42
T7: D 3.48, I 2.19, C 1.98
P10: N 1.97, Q 2.02
P4: N 2.46

Variants of: B2
Assay: as above
Conditions: c terminus: a fixed tail appended

Protein stability index: each site, then its substitutions
W1: A 3.05, C 3, D 3.25, E 3.52, F 2.85, G 2.92, H 3.37, I 2.08, K 3.54, L 3.13, M 2.75, N 3.23, P 3.29, Q 3.1, R 3.66, S 2.6, T 2.79, V 3.4, Y 2.65
E2: A 2.48, C 2.46, D 2.2, F 1.72, G 2.56, H 2.51, I 2.45, K 2.42, M 1.41, N 2.3, P 2.12, R 1.98, S 2.58, T 2.02, V 2.21, W 1.68
V3: A 3.31, C 2.11, D 3.35, F 2.39, G 2.29, H 3.16, I 2.89, K 2.83, L 2.55, M 2.79, N 3.38, P 2.49, Q 2.96, R 2.31, S 3.38, T 3.5, W 2.8, Y 3.35
Q4: A 1.73, C 2.2, E 2.08, K 2.07, L 2.08, N 2.73, P 3.58, R 1.9, S 1.87, T 2.36, V 2, W 1.48, Y 3.38
V5: A 2.15, D 4.04, G 2.48, H 2.97, I 2.27, K 2.98, L 2.29, M 2.41, N 2.71, P 1.68, Q 3.37, S 2.94, T 3.03, W 2.4, Y 2.58
S6: A 1.87, C 2.63, D 2.84, E 1.71, F 2.4, G 2.54, H 3.03, I 2.12, K 1.85, L 2.6, M 1.89, N 3.46, P 2.87, Q 2.53, R 2.5, T 2.22, W 1.94, Y 2.07
P7: A 1.72, D 2.43, G 3.03, H 2.2, I 1.97, L 1.9, M 1.33, N 1.8, Q 2.43, R 2.19, S 2.5, T 1.58, V 1.32, W 2.58, Y 2.31
T8: A 3.17, D 3.42, E 3.07, F 1.85, G 2.48, I 2, K 2.39, L 1.88, N 2.79, P 2.92, Q 2.33, R 1.7, S 2.37, V 1.66, W 2.56
C9: A 4.38, D 4.9, E 4.49, F 2.85, G 3.97, H 3.74, I 3.53, K 4.72, L 1.98, M 3.15, N 4.34, P 3.11, Q 4.56, R 4.04, T 3.94, V 4.11, W 2.52, Y 3.5
P10: A 1.25, C 3.25, E 2.23, F 2.89, H 2.81, I 2.34, K 2.79, L 2.65, M 2.46, N 2.58, Q 3.01, R 2.42, S 3.32, T 2.38, V 2.02, W 2.51, Y 2.29
V11: A 2.37, C 1.68, D 3.64, F 1.78, G 2.89, H 1.96, I 2.24, K 3.7, L 1.9, M 1.23, N 2.9, P 3.86, Q 2.3, R 2.93, S 1.79, T 3.14, W 2.88, Y 1.51
C12: A 4.59, D 4.14, E 4.81, F 3.29, G 3.7, H 3.46, I 3.4, K 3.88, L 3.8, M 4.44, P 3.86, Q 3.9, T 4.54, V 3.89
K13: C 1.72, D 2, E 2.71, F 1.94, G 1.7, I 2.17, L 3.25, M 1.94, N 2.39, P 3.74, Q 2.66, R 1.46, S 2.19, T 2.31, V 2.7, W 2.09, Y 2.05
D14: A 2.49, C 1.03, E 2.75, F 2.81, H 1.81, I 1.93, K 2.54, L 2.62, M 1.75
